Assay results published in patent US20220168346A1 (published 2022).

Experiments:
[1] = target: C*07:01/gp100479-487 multimer (human; mouse) (UniProt P01901); assay: pHLA multimer staining of TILs before stimulation (day 0), flow cytometry
[2] = target: C*07:01/gp100479-487 multimer (human; mouse) (UniProt P01901); assay: pHLA multimer staining of TILs after one peptide-specific stimulation with C*07:01-artificial APCs (day 14), flow cytometry
[3] = target: T1, gp100 peptide on HLA-C*07:01 (human); assay: multimer staining
T1 peptide: RYGSFSVTL
Protocol: T cells (1×10⁵) were incubated for 30 minutes at 37° C. in the presence of 50 nM dasatinib (LC laboratories). The cells were then washed and incubated with 5-10 μg/ml of multimer for 30 minutes at room temperature, and R-phycoerythrin-conjugated AffiniPure Fab fragment goat anti-mouse IgG1 (Jackson ImmunoResearch Laboratories) was added for 15 minutes at 4° C. Next, the cells were washed three times and costained with an anti-CD8 mAb for 15 minutes at 4° C. Dead cells were finally discriminated using the LIVE/DEAD Fixable Dead Cell Stain kit.

Q: With C*07:01+ melanoma TILs as the molecule, how does the percentage of multimer+ cells in CD8+ T cells [1] read?
A: 0.14%

Q: What about the percentage of multimer+ cells in CD8+ T cells [2] of the same molecule?
A: 1.2%

B1: C*07:01/gp100479-487 TCR (TCR, V domains shown)
Valpha: DQQVKQNSPSLSVQEGRISILNCDYTNSMFDYFLWYKKYPAEGPTFLISISSIKDKNEDGRFTVFLNKSAKHLSLHIVPSQPGDSAVYFCAANSGNTPLVFGKGTRLSVIA
Vbeta: EPEVTQTPSHQVTQMGQEVILRCVPISNHLYFYWYRQILGQKVEFLVSFYNNEISEKSEIFDDQFSVERPDGSNFTLKIRSTKLEDSAMYFCASSLMGGGNTIYFGEGSWLTVV
Q: Does B1 bind [3]?
A: recognises
